For 20 sequences, protein production results are on record in a protein production outcome set (Wang et al. 2014).

The nature of the data set: label from the status in PepcDB records.

“MDWTTLFFSFRGRINRAKYWLVGLIYVAAWMVFTVLAITWLGGVDPDQLFRFAGGAILIWLIAIALGLAGTWSGLATGVKRLHDRDKSGWWILLFWFGPSLLGGSNQTMEDSPVSLVLALIGLGIAIWGFVELGCLRGTPGPNQYGPDPLEPQGTLT”: the protein production entry is on record as “failed”. The result for “MDYDQQPIMYDEVELLIQAVDQQPHPLLRLRDKAIIQLGLQGGFRRSELANLKVHYLSFMRDKLKVRLPFSKSNQQGLREWKSLPDSEPFAAYHAVKSWLNESQITDGHLFRSISRDGKTLRPYHVNDNSKPKSTFSRNSGFLNGDDIYRIIKQYCLKAGLPAQYYGAHSLRSGCVTQLHENNKDILYIMARTGHTDPRSLRHYLKPKEDLEHHHHHH” reads “failed”. The entry for “MDYFRLAEKFLREMHAKYMKRVSRPGNTPRPWFDFSEERLLSRLFEEMDELREAVEKEDWENLRDELLDVANFCMYLWGKLSVKNIYDKGEEQ” is “not failed”; for “MDYKKTNAPSNTVTRDMMDLCADTGNIYETVAIIGKRANQISVEMKNDLSKKLQEFASYNDNLEEVFENREQIEISRYYEKLPKPTLIAAQEYEEGKVYFRNPAKEKEKLQ” it is “not failed”; for “MDYKLIITLFTFCVAAFSGMKAAEAASFSVVADGLNNARGLSFGLDGALYVTEAGTGGNGACIPSVTGQGGSLCYGTSSTVLKIENGVTSPVLTGLPSIALADGTGAGGARDIQFDTTGKPYILMGYGANPTFRNNLGNIDLGKIIAPDFQTNSWTSIADLANYELVNNPDGGDINSNPLGFFIDGNNLIAVDAGANNLLSVQTNGTNLQTLSVFPQEILTNPVFPPSGTPSTEPGQVPTPTAPPPPQLPIQVVPSSVVRGPDGAYYVSQFTGFPFPEGGAKIYRVGTDGETTIYADGFTQLTDLEFDSAGNLYALQYANQSAWKGNFDGSLIKIAADGTRTTILSGNGLESPNALAIAPNGEIYITNRSDRPGLGQIIRVENSQAVPEPNSAFSVFLLGAFGVAWLRKSTSRVCLNQKP” it is “failed”. As for “MDYKSKTANDKEISIYYFSATGNSLKLSQDIAAAFGGAGLFRMTPSAGITASDSRIVGFIFPVYMGGLPGIVRRFLESYPFRKGVYYFSIGTYYTYKGCAVSVVDKIMSGKGVRLDYGYNLPTVGNCLKEYEVSSVRRTKILERAELYTSRIIDDLKKGKRKKPFPYCRLSDLLHKGLFNAFFSRSHLNFSLENGCMGCGVCERVCPVNNITLKNGVPRWGTGCEACHACVHWCPRNVIQIGKSKGRLQYHHPAVKRTMLYRVELEHHHHHH”, the protein production result was “not failed”. For “MDYLSQEEDLQFFDANEEMMALNPSGFGFDVWNDSPGSVVERRRKFLEWMGVEEEGRVETKDSVSGSSVESCFDGGEENSVEAEERSGECSSSSSEVSLSGSSVEVSEELSLRVDRNVGGCDVTRRQSSSMASCSSSRYCQVKETEKQRNIAGLVTSFKKGWLSRLRSMGCTADTNIESGGRMRASSGYGDVISRVKVKHCKKQAKELSALYQSQDIKAHDGAILAMKFSNDGKFLASSGEDGIVRVWKVVEDKKSRLRRDCLNEIDPSCMYFEVNDLSQLKPVLVNEEKPKKTTESFRKTSDSACVVFPPKVFRIMEKPLYEFRGHTGEVLDISWSKDNYLLSASMDKTVRLWKVGSNDCLGVFAHNSYVTSVQFNPVNENYFMSGSIDGKVRIWNISGCSVVDWADLKDIISAVCYRPDGQGGIIGSLNGSCRFFNMSGEFLELDSQIHLHNKKKSSNKRITGFQFLPQEPTKVLVVSADSKVRILQGNNVVRKYKGVCKTRSLTSASLTSDGKHIVSACEDSNVYIWSNDEESETKKIRSFERFSANASVAATWCGFSDHNTTLPFSSPSCLSHNEGFVPGSISKGSATWPEENLPANPLSTSAMNASHYKFLKSSYQRASSSLSWGMVIVTGGWDGQIRTFQNYGLPVTT”, the protein production entry is reported as “failed”. The result for “MDYTYTVMTQEEAEEIAYNWHYEGEYSFYDIEADEEDLAEFLHDESRGDHIFSVKEHGTLIGYFTVCKINDGTVDIGLGMKPNITGNGFGLQFINAILAFSKEKYGCKYITLSVATFNKRAIKVYKRAGFEAVGTFIQKTNGSCFEFLKMNYICKND” reads “failed”; that for “MEAEKKKLSIPPKGIRAIIEAIRLGEIIKPSQYAKREAFKKHDVEEAWLNRVLTMIFYDIMKKQGLIDKVIKEIVGVTPLILDPWLRAALRVAVDIALFHDPSSQTIKNLRWKASDFISSRTHPYVGMYFWDLLDKIFEYKPNPKNELEELEWKYLAPSWLIERVKGILGDETEDFFRSVNKRHEWISIRVNTLKANVEEVIGELEEDGVEVVRSERVPTILKIKGPYNFDTSSAFNEGKIIVQEEASAVASIVLDPKPGETVVDLAAAPGGKTTHLAELMKNKGKIYAFDVDKMRMKRLKDFVKRMGIKIVKPLVKDARKAPEIIGEEVADKVLLDAPCTSSGTIGKNPELRWRLREDKINEMSQLQRELLESAARLVKPGGRLLYTTCSIFKEENEKNIRWFLNVHPEFKLVPLKSPYDPGFLEGTMRAWPHRHSTIGFFYALLEKSK”, “not failed”.

On to “MEAGFVSVGDVTFRDLEDEAIVELVRKGNTDALEYLIHKYKNFVRAKSRSYFLVGADREDIVQEGMIGLFKAIRDYKEDKLSSFKAFAELCITRQIITAIKTATRQKHIPLNSYVSLDKPIYDEESDRTLLDVISEAKVTDPEEMIISQEEYTDIESKISELLSDLERKVLSLYLDGRSYQEISEQLNRHVKSIDNALQRVKRKLERYMEMRESTTLNS”, for which the protein production result was “failed”. In the case of “MEAKKSNKIREIVKLQQLLKKWRKQAIASKAANNNNEDNNSSGGGSKSIKFLKRTLSFTDVTAVPKGYLAVSVGLEKKRYTIPTEYLSHQAFYVLLREAEEEFGFQQAGVLRIPCEVSVFESILKIMEEKNEGYLVTPITAKQECKFNAAADDKTSYQHPSDCPKTPSHQPHNSPMCR”, the protein production result was “not failed”.

As to “MEAMTLPPQDLPPGQALLATPLGTANAPQAARVHTYPLRFTGQASEYFRVWIVNLALTVITLGLYTPWARIRTRQYLYGHTWLDDQNFEYTASPFALLRGYLIVVAFFGLYTAAQQLQFTGWEWVTGALGLLFAVAYPWLVRQSMRFQARSTVHRGLRFRFTGSLGDAYVSYGVANIAAVFSGSLALPWAWFMQRRYQADGLAYGTARGHFRGSLGPFYLIGLAGAGLTVLGIGLLAGLAIGAATIAGVLGDLNLEQLDTDLLTSAVVVAFVLGYLALAVLYGIAWQYVRAATMHYVLNNFELGGVVRTQATFSPWRLVWINLANTLARIFSLGLLTPWTVIRTNRYLLGHVQVRAIVSLDDFSAAQTEDESAVGEAATELLDINIGF”, the protein production result is reported as “failed”. The entry for “MEAPTVLDVGCGDGARTLANLPPRSVGLDFSRAGLDLAAETVPDSRLVQGDMGSLPVTTDSVDAITAYHAVFHVQRDQHPEVYREFARVLRPGGTVLMTLPSGQFETVRRGWMGGSMFFSAPGRRATLDQLADAGFTETETVTATDPLGSDSEFVFATLADALEHHHHHH” is “failed”. As to “MEDEHSRQAYVDQLGLLEEGADEVFEEILAAATSYFQTPIALISILDHQRQWFRASIGLDIRQTPRRDSFCAYAILGKGVFEVADATLDPRFRDNPYVQGEPRIRFYAGAPLATAEGLNLGSLCVIDREPRGPLAERDVAMLEHFARLVMARIHTLRSTNYIDEPTGLYNRLRLQEDVSLRLQRDGALTVIAADLLPLALLNTIIRTLGYPFSNDLMLEARDRIRAELPDFTLYKISPTRFGLLLPRQQQEETESVCLRLLRAFESPVVCRGIPIKANVGLGVLPLADDTLDGDQDWLRLVVSAADDARDRGVGWARYNPPLDQAQQRAFTLLTSLSQAIGTEEGFHLVYQPKIDLPTGRCTGVEALLRWRHPQLGFVSPAEFVPLAEKTALMRPLSDWVLRHAMAQLAQWNARNIPLRLAINVSASDMEDSSFLEEAVRLAKTYDIDLSALELEFTESVLIRDASAVGSVLLRARELGMGIAVDDFGTGYSNWTYLRDLPITAIKLDQSFTRDLAGSPKAQSVTQAVIGLASQLGYRVVAEGIETHDTFHLLQAWGCHEGQGYLIAQPMLPEQLEDWLRRLEHHHHHH”, the protein production result is reported as “failed”. The result for “MEDIFSKRKTLRTIKADTSDYFIPLFHTLAVFLSTKETIITKRFLEHIMKNLIALTLLLGGSTLLCAQKPAKTPATYKPVKSEMYRKGWIDFNKNGVKDVYEDPSAPLEARIENLLQQMTLDEKTCQMVTLYGYKRVLKDDLPTPEWKELLWKDGIGAIDEHLNGFQQWGLPPSDNAYVWPASRHAWALNEVQRFFVEDTRLGIPVDFTNEGIRGVESYRATNFPTQLGLGHTWNRELIRQVGLITGREARMLGYTNVYAPILDVGRDQRWGRYEEVYGESPYLVAELGIEMVRGLQHNHQVAATGKHFAAYSNNKGAREGMARVDPQMSPREVENIHIYPFKRVIREAGMLGVMSSYNDYDGIPVQGSYYWLTTRLRGEMGFRGYVVSDSDAVEYLYTKHGTAKDMKEAVRQSVEAGLNVRCTFRSPDSFVLPLRELVKEGGLSEEVINDRVRDILRVKFLIGLFDAPYQTDLADADREVEKEENEAIALQASRESIVLLKNAGELLPLDINSTKKIAVCGPNANEEGYALTHYGPLAVEVTTVLEGIQEKTKGKAEVLYTKGCDLVDAHWPESEIIDYPLTDDEQAEIDKAVENARQADVAIVVLGGGQRTCGENKSRTSLDLPGRQLQLLQAIQATGKPVVLILINGRPLSINWADKFVPAILEAWYPGSKGGTALADILFGDYNPGGKLTVTFPKTVGQIPFNFPCKPSSQIDGGKNPGPTGNMSRINGALYPFGYGLSYTTFEYSDLDITPRVITPNESATVRLKVTNTGKRAGDEVVQLYIRDVLSSITTYEKNLAGFQRIHLEPGEAQELSFTIDRKHLELLDADMKWVVEPGDFVLMAGASSEDIRLNGTLTVEDYQTRAKAIEAQKPAKRVSASTNPEDAENVLDEKINTAWQGNKGDYITFALKNGAKVDKVAIAFTRDNNLPATFEIQLSGGGGQFLTVYSGTVSEYGKLISYPFKGTTASDLRIVLNDDRVSIAEVKF” reads “failed”.

Take “MEDKAVSPIIATILLIAITVALAATFYTEVTPYFTEAQYYTPQAVTDVMNVSNGSSFSYDIYIQFFPANLTASQVEISLHVGSSYEYINLKMLSPFGKTTLNNGSITISQYPSAGYFTQGLIFVINSTLPLHSIIFVDLKTSSSINTVSI”: the protein production result is on record as “failed”. The result for “MEDKKEYAKYAGFRIRFAAMLIDVVILVILFSIPVGFIYGQEYWQGEKLIYGFWDVLINYVIPAILTIFFWIKFLGTPGKMILKLRVVDEHTGGTLSIGKAIGRYFAYILSILPVFLGFFWIGFSDKKQGWHDILAGTVVIRSESKGPFEFRS” reads “failed”; that for “MEDKRISEKESLELIACMIRETQDNTARYAAYPLLIWGYTTVAISLVVWYFYLQTGVWQINFLWFALPVIAGPLTIFFNRKDKNKGAKNYIDRVTGQIWAVFGVVGFCLSCMAFVVRIDILFVISLLMGMGATLTGLVCKYKPLSIAGMTGIALSFSMLFIHGSGVYLVFAAIFIVMMIVPGHIMNKQMKKQCLKN”, “failed”. Take “MEDLLVVGQIINTHGLRGEMKVMPLTEDMRRFDYLEYVILKGKKVKVEGVKYFKDKVILKLEGINSIEEAEKLKRTYLEIEREDAIELEEDEYFIVDLVGCTVVDTEGFEYGKIKDVIQTPSNDVYWVQGKKEVLVPVLKDIVLDINMDEKLITIRPSGEWQYEDLEHHHHHH”: the protein production entry was “failed”. The entry for “MEDSSGQSLLFQFILLLILTLLSAFFSASEMALVSLNRSRVEQKAEEGDKKFIRLLKVLENPNNFLSTIQVGITFIGLLQGASLSASLGAVIATWFGNVAWAKTAGSVVSLVVLTYISIVFGELYPKRIAMNLKENLAIYSAPVIIVTGKIVSPFVWILSASTNLLSRLTPMTFDDADEPMTRDEIEYMLTKSEDTLEAEEIEMLQGIFSLDELMAREVMVPRTDAFMIDIEDDTQENIQAILKQSFSRIPVYEDNKDKIIGVIHTKKLLKAAYELGFENVNLRRIMNEPLFVPETIFVDDLLAAFRNTNNQMAILLDEYGGVAGLVTFEDLLEEIVGEIDDETDKASVEVREIGENTYIVEGSMTLNDFNEHFDTELESDDVDTIAGYYLTGVGAIPTQEVKEHYEVINKDKRLEFINDKVKDGRVTKLKVIITAAPEEAGE” is “failed”.
